This assay concerns the target Activated human plasma kallikrein (Enzyme Research Laboratories, HPKa 1303) (human, UniProt P03952 20-638). Put plainly: cell-based or functional assay.

Numbered stars: 1 amine (or outer) side, 2 acyl side, 3 side chain; on linkers, the order of the positions; unused ones are H or OH. Bridge positions count the residues as written; N and C are the ends. Square brackets hold non-standard residues; d marks the D form. Ends that are not written are not given here. mXylyl = xylyl linker from dibromoxylene joining the two cysteines; Phe(3-CH2NH2) = O=C([C@H](Cc1cccc(CN[*:3])c1)N[*:1])[*:2]; Ala(1H-tetrazol-5-yl) = N[C@@H](Cc1nnn[nH]1)C(=O)O; des‑NH2 = missing amino-terminal amine group; Phe(4-CH2NH2) = NCc1ccc(C[C@H](N)C(=O)O)cc1; hexyltetrazolyl‑mXylyl = not defined here; η‑ω‑MeR = eta-omega methylated arginine; pXylylene = c1cc(C[*:2])ccc1C[*:1]; NMeE = CN[C@@H](CCC(=O)O)C(=O)O; Gly(cPr) = N[C@H](C(=O)O)C1CC1; dPhg = N[C@@H](C(=O)O)c1ccccc1; Chg = N[C@H](C(=O)O)C1CCCCC1; Pen = CC(C)(S)[C@H](N)C(=O)O; Phg = N[C@H](C(=O)O)c1ccccc1; Tle = CC(C)(C)[C@H](N)C(=O)O; hLys = NCCCCC[C@H](N)C(=O)O; oXylyl = ortho-xylyl linker; mLutidine = meta-lutidine; Nle = CCCC[C@H](N)C(=O)O; Nva = CCC[C@H](N)C(=O)O; Mpa = O=C(O)CCS; Sar = CNCC(=O)O Bounds are passed on as bounds.

Chain of Activated human plasma kallikrein (Enzyme Research Laboratories, HPKa 1303) (P03952 20-638 limits assumed): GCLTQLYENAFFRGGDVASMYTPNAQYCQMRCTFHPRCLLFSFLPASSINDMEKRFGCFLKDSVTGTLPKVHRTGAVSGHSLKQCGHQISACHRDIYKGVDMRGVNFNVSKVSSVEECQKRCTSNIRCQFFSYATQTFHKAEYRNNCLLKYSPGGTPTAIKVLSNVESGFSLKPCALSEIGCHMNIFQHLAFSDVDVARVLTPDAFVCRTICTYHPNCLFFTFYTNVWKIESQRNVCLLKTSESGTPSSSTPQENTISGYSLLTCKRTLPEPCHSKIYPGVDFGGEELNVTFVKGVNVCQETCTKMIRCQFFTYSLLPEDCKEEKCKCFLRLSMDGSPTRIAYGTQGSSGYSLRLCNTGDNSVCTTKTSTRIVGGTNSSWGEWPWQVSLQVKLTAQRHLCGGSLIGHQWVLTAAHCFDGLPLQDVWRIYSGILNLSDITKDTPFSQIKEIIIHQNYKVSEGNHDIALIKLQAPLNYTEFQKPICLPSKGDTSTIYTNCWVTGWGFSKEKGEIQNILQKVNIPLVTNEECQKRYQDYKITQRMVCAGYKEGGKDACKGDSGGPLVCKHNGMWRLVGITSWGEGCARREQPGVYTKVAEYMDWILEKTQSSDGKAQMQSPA

Turning to MC[Ala(1H-tetrazol-5-yl)]SICRV-NH2 (linker 2-6 via mXylyl) [R2020], the “Avg. IC50” value stood at 13 nM. On to Ac-C[dA]S[dPhg]CR[Tle]-NH2 (linker 1-5 via mXylyl) [R2060], for which the “Avg. IC50” value stood at 959 nM.

B1: R2028 (peptide)
peptide: MCESICRV-NH2
modifications: linker 2-6 via hexyltetrazolyl‑mXylyl; reading uncertain; also: printed as [hexyltetrazolyl-mXylyl(2,6)]MCESICRV-NH2
In the case of B1, the “Avg. IC50” value worked out at 714 nM. With MCESICRV-NH2 (cysteine pairing not given here) [R2007] the figure was 2000 nM; with MCESICR-NH2 (linker 2-6 via mXylyl) [R2015], 16500 nM; with CAS[Phg]CR[Tle]-NH2 (linker 1-5 via mXylyl) [R2039], 11.9 nM. With MCASICRV-NH2 (linker 2-6 via mXylyl) [R2024], the “Avg. IC50” value worked out at 41.9 nM. With [Nva]CESIC[Phe(3-CH2NH2)]V-NH2 (linker 2-6 via mXylyl) [R2022] the figure was 21000 nM.

For the molecule [Nva][Pen]ESI[Pen]RV-NH2 (linker 2-6 via mXylyl) [R2034], the “Avg. IC50” value was greater than 100000 nM. The figure for Ac-CAP[Phg]CR[Tle]-NH2 (linker 1-5 via mXylyl) [R2058] is 29.5 nM. The figure for Ac-[Nva]CESIC[hLys]V-NH2 (linker 2-6 via mXylyl) [R2033] is 8650 nM. The figure for Ac-CESICRVLRY-NH2 (linker 1-5 via mXylyl) [R2055] is 2.2 nM; for Ac-CASFCR[Tle]-NH2 (linker 1-5 via mXylyl) [R2059] it is 425 nM; for MCESICRV-NH2 (linker 2-6 via mLutidine) [R2044] it is 645 nM. Regarding Ac-[Nva]CESIC[η‑ω‑MeR]V-NH2 (linker 2-6 via mXylyl) [R2054], the “Avg. IC50” value was determined as 5000 nM. The figure for Ac-CESICRVLK-NH2 (linker 1-5 via mXylyl) [R2038] is 299 nM. Regarding MCEAICRV-NH2 (linker 2-6 via mXylyl) [R2018], the “Avg. IC50” value stood at 37.3 nM. [Mpa][code a]S[Phg]CR[Tle]-NH2 (linker 1-5 via mXylyl) [R2064]: the “Avg. IC50” value came out at 14.9 nM.

Regarding MCESICRA-NH2 (linker 2-6 via mXylyl) [R2016], the “Avg. IC50” value worked out at 3900 nM. In the case of Ac-CSICRV-NH2 (linker 1-4 via mXylyl) [R2037], the “Avg. IC50” value stood at 410 nM. The figure for Ac-CESICRVLR-NH2 (linker 1-5 via mXylyl) [R2046] is 59.3 nM.

B2: R2049 (peptide)
peptide: {des‑NH2}-CICRV-NH2
modifications: linker 1-3 via mXylyl; not fully specified (residue 1); printed as [mXylyl(1,3)](des-NH2)C-ICRV-NH2
In the case of B2, the “Avg. IC50” value came to 16300 nM.

As to Ac-CAS[Tle]CR[Tle]-NH2 (linker 1-5 via mXylyl) [R2048], the “Avg. IC50” value is 1400 nM. With Ac-CA[Sar][Phg]CR[Tle]-NH2 (linker 1-5 via mXylyl) [R2052] the figure was 74.2 nM; with Ac-CESICRVL-NH2 (linker 1-5 via mXylyl) [R2045], 187 nM; with ACESICRV-NH2 (linker 2-6 via mXylyl) [R2025], 9.5 nM.

B3: R2063 (peptide)
peptide: Ac-CASVCRV-NH2
modifications: linker 1-5 via mXylyl; not fully specified (residue 2); printed as [mXylyl(1,5)]Ac-C-a-SVCRV-NH2
B3: the “Avg. IC50” value is 151 nM.

Regarding Ac-CAS[Phg]C[Phe(4-CH2NH2)][Tle]-NH2 (linker 1-5 via mXylyl) [R2053], the “Avg. IC50” value was 5340 nM. As to [Nva]CESIC[Phe(4-CH2NH2)]V-NH2 (linker 2-6 via mXylyl) [R2021], the “Avg. IC50” value was found to be 2000 nM.

As to MCESACRV-NH2 (linker 2-6 via mXylyl) [R2017], the “Avg. IC50” value stood at 2140 nM. With MCESICRV-NH2 (linker 2-6 via 3‑methoxy‑mXylyl) [R2102] the figure was 39.7 nM; with Ac-MCES[Chg]CRV-NH2 (linker 2-6 via mXylyl) [R2050], 11 nM. The figure for [Nva]CESICRF-NH2 (linker 2-6 via mXylyl) [R2035] is 7200 nM; for [Nva][Pen]ESICRV-NH2 (linker 2-6 via mXylyl) [R2031] it is 1460 nM. The figure for Ac-C[Nle]S[Phg]CR[Tle]-NH2 (linker 1-5 via mXylyl) [R2065] is 6.1 nM; for [Nva]CESI[Pen]RV-NH2 (linker 2-6 via mXylyl) [R2032] it is 1030 nM; for [Nva]CES[Phg]CR[Tle]-NH2 (linker 2-6 via mXylyl) [R2013] it is 6.8 nM. For [Nva]CESIC[hLys]V-NH2 (linker 2-6 via mXylyl) [R2029], the “Avg. IC50” value came to 8840 nM.

B4: R2027 (peptide)
peptide: MC[NMeE]ESICRV-NH2
modifications: linker 2-7 via mXylyl; not fully specified; printed as [mXylyl(2,6)]MC-nMeE-ESICRV-NH2
B4: the “Avg. IC50” value came to 990 nM.

B5: R2061 (peptide)
peptide: Ac-CAS[Phg]CR[Tle]-NH2
modifications: linker 1-5 via mXylyl; not fully specified (residue 2); printed as [mXylyl(1,5)]Ac-C-a-S-Phg-CR-Tbg-NH2
B5: the “Avg. IC50” value was determined as 12.7 nM.

Take MCESICRV-NH2 (linker 2-6 via trans‑butenyl) [R2011]: the “Avg. IC50” value was determined as 12800 nM.

On to MCESICRV-NH2 (linker 2-6 via oXylyl) [R2042], for which the “Avg. IC50” value is 3190 nM. With MCESICRVN-NH2 (linker 2-6 via mXylyl) [R2014] the figure was 37.5 nM; with MCESICRV-NH2 (linker 2-6 via pXylylene) [R2043], 617 nM.

B6: R2062 (peptide)
peptide: Ac-CAS[Gly(cPr)]CRV-NH2
modifications: linker 1-5 via mXylyl; not fully specified (residue 2); printed as [mXylyl(1,5)]Ac-C-a-S-Cppg-CRV-NH2
Regarding B6, the “Avg. IC50” value was determined as 2470 nM. With Ac-CESICRVLRYS-NH2 (linker 1-5 via mXylyl) [R2056], the “Avg. IC50” value is 1.9 nM. With MCETICRVLKYSD-NH2 (linker 2-6 via mXylyl) [R2005] the figure was 1.8 nM; with Ac-CESICRVLRYSE-NH2 (linker 1-5 via mXylyl) [R2057], 0.943 nM. On to MCESICKV-NH2 (linker 2-6 via mXylyl) [R2040], for which the “Avg. IC50” value was 733 nM.
